From patent US20240294646A1 come the findings set out here.

Test [1] concerns the target FcγRIIb (UniProt P31994). As to the kind of experiment: SPR (Protocol 2); ratio of the fold for FcγRIIb to the fold for FcγRIIaR.
For the next test, the target named is FcγRIIaR (UniProt P12318). As to the kind of experiment: SPR (Protocol 2), antibody captured on immobilised HER2, receptor as analyte.
Test [2] deals with FcγRIIb (UniProt P31994). Described as above.
In test [3] the target is Soluble FcγRIIb extracellular domain with C-terminal 10xHis tag (UniProt P31994). As to the kind of experiment: SPR; IIb/IIaR selectivity against control v27294. (In SPR one partner is held on a chip, and binding of the other changes the refractive index at the surface.)
Test [4] shares this target. Description: SPR; FcγRIIb affinity fold against control v27294.
The target is the same in test [5]. Description: SPR; IIb-Fold / IIaR-Fold (FcγRIIb over FcγRIIaR).
The target of test [6] is Soluble FcγRIIaR extracellular domain with C-terminal 10xHis tag (UniProt P12318). Description: SPR, antibody captured on HER2, receptor as analyte; affinity fold over wild-type v16463.
For test [7], the target named is Soluble FcγRIIb extracellular domain with C-terminal 10xHis tag (UniProt P31994). The test is described as above.

Chain of Soluble FcγRIIaR extracellular domain with C-terminal 10xHis tag (P12318 other isoform, or with tags, fused parts or gaps): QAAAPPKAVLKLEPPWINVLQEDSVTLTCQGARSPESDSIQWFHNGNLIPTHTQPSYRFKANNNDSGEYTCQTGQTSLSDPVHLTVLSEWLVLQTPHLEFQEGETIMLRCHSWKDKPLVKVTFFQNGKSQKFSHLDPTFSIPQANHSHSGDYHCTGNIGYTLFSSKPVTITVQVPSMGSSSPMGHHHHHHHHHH
Chain of FcγRIIb (P31994 43-217): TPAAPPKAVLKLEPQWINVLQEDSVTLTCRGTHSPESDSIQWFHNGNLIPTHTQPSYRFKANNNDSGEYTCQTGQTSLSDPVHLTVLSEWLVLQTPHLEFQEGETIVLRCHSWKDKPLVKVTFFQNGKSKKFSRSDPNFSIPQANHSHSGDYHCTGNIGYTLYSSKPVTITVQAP
Chain of FcγRIIaR (P12318 34-217): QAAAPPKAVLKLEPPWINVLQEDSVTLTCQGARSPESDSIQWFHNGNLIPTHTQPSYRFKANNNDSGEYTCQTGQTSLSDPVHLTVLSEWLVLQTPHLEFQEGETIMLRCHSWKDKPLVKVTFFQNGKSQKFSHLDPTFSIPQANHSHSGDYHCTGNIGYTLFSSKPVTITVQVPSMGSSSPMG
Chain of Soluble FcγRIIb extracellular domain with C-terminal 10xHis tag (P31994 other isoform, or with tags, fused parts or gaps): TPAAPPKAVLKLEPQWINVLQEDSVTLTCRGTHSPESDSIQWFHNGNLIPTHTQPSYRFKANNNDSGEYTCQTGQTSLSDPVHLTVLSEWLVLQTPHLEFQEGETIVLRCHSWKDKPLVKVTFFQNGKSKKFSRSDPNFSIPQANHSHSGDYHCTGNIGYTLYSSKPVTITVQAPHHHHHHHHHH

“Variant 19518 (chain A: none / chain B: G236D_S239D_H268D), one-armed trastuzumab antibody, Scaffold 2”: in the test with FcγRIIb [1], the IIb/IIaR Selectivity (IIb-Fold/IIaR-Fold) came out at 2.2. For the same substance, the IIaR-Fold (fold change in affinity over wild-type) (fold over wild-type) with FcγRIIaR came to 14.7. Besides, the IIb-Fold (fold change in affinity over wild-type) (fold over wild-type) with FcγRIIb [2] is 32.9.

Consider “Variant 16493 (chain A: G236N / chain B: G236N), one-armed trastuzumab antibody, Scaffold 2”, for which the IIb/IIaR Selectivity (IIb-Fold/IIaR-Fold) with FcγRIIb [1] stood at 3.1. Further, the IIaR-Fold (fold change in affinity over wild-type) (fold over wild-type) with FcγRIIaR was 0.3. For the same substance, the IIb-Fold (fold change in affinity over wild-type) (fold over wild-type) in the test with FcγRIIb [2] stood at 0.8.

In the case of “Variant 19509 (chain A: G236N / chain B: S239D_H268D), one-armed trastuzumab antibody, Scaffold 2”, the IIb/IIaR Selectivity (IIb-Fold/IIaR-Fold) with FcγRIIb [1] stood at 3.3. In addition, in the test with FcγRIIaR, the IIaR-Fold (fold change in affinity over wild-type) (fold over wild-type) worked out at 9.7. Moreover, the IIb-Fold (fold change in affinity over wild-type) (fold over wild-type) in the test with FcγRIIb [2] amounted to 31.8.

On to “Variant 19524 (chain A: G236Q / chain B: G236D_S239D_H268D), one-armed trastuzumab antibody, Scaffold 2”, for which, in the test with FcγRIIb [1], the IIb/IIaR Selectivity (IIb-Fold/IIaR-Fold) was determined as 1.2. The IIaR-Fold (fold change in affinity over wild-type) (fold over wild-type) with FcγRIIaR was determined as 8.9. In addition, the IIb-Fold (fold change in affinity over wild-type) (fold over wild-type) in the test with FcγRIIb [2] amounted to 10.3.

On to “Variant 19507 (chain A: G236E / chain B: G236E), one-armed trastuzumab antibody, Scaffold 2”, for which the IIb/IIaR Selectivity (IIb-Fold/IIaR-Fold) with FcγRIIb [1] is 0.4. In the test with FcγRIIaR, the IIaR-Fold (fold change in affinity over wild-type) (fold over wild-type) was 1.8. Also, the IIb-Fold (fold change in affinity over wild-type) (fold over wild-type) with FcγRIIb [2] was 0.8.

As for “Variant 19511 (chain A: G236N_G237F / chain B: S239D_H268D), one-armed trastuzumab antibody, Scaffold 2”, in the test with FcγRIIb [1], the IIb/IIaR Selectivity (IIb-Fold/IIaR-Fold) is 1.2. Besides, the IIaR-Fold (fold change in affinity over wild-type) (fold over wild-type) with FcγRIIaR turned out to be 5.7. The IIb-Fold (fold change in affinity over wild-type) (fold over wild-type) with FcγRIIb [2] stood at 7.1.

With “Variant 19503 (chain A: G236N_G237A / chain B: G236N_G237A), one-armed trastuzumab antibody, Scaffold 2”, in the test with FcγRIIb [1], the IIb/IIaR Selectivity (IIb-Fold/IIaR-Fold) worked out at 4.5. Further, in the test with FcγRIIaR, the IIaR-Fold (fold change in affinity over wild-type) (fold over wild-type) is 0.04. In addition, the IIb-Fold (fold change in affinity over wild-type) (fold over wild-type) with FcγRIIb [2] is 0.2.

Regarding “Variant 19504 (chain A: G236N_G237F / chain B: G236N_G237F), one-armed trastuzumab antibody, Scaffold 2”, the IIb/IIaR Selectivity (IIb-Fold/IIaR-Fold) in the test with FcγRIIb [1] is 3.3. For the same substance, the IIaR-Fold (fold change in affinity over wild-type) (fold over wild-type) in the test with FcγRIIaR is 0.05. Further, in the test with FcγRIIb [2], the IIb-Fold (fold change in affinity over wild-type) (fold over wild-type) stood at 0.2.

As for “Variant 19512 (chain A: none / chain B: G236N_S239D_H268D), one-armed trastuzumab antibody, Scaffold 2”, the IIb/IIaR Selectivity (IIb-Fold/IIaR-Fold) in the test with FcγRIIb [1] worked out at 2.5. For the same substance, the IIaR-Fold (fold change in affinity over wild-type) (fold over wild-type) with FcγRIIaR is 3.2. In addition, the IIb-Fold (fold change in affinity over wild-type) (fold over wild-type) with FcγRIIb [2] worked out at 7.9.

Consider “Variant 19694 (chain A: none / chain B: G236D_G237F_S239D_H268D), one-armed trastuzumab antibody, Scaffold 2”, for which the IIb/IIaR Selectivity (IIb-Fold/IIaR-Fold) with FcγRIIb [1] was 2.9. In the test with FcγRIIaR, the IIaR-Fold (fold change in affinity over wild-type) (fold over wild-type) came out at 18.2. The IIb-Fold (fold change in affinity over wild-type) (fold over wild-type) in the test with FcγRIIb [2] amounted to 53.5.

Regarding “Variant 19531 (chain A: G236D / chain B: G236H_S239D_H268D), one-armed trastuzumab antibody, Scaffold 2”, in the test with FcγRIIb [1], the IIb/IIaR Selectivity (IIb-Fold/IIaR-Fold) was found to be 2.3. Further, the IIaR-Fold (fold change in affinity over wild-type) (fold over wild-type) in the test with FcγRIIaR came out at 1.6. Also, the IIb-Fold (fold change in affinity over wild-type) (fold over wild-type) with FcγRIIb [2] came out at 3.7.

Consider “Variant 19508 (chain A: none / chain B: S239D_H268D), one-armed trastuzumab antibody, Scaffold 2”, for which the IIb/IIaR Selectivity (IIb-Fold/IIaR-Fold) with FcγRIIb [1] stood at 1.2. In the test with FcγRIIaR, the IIaR-Fold (fold change in affinity over wild-type) (fold over wild-type) stood at 25.6. For the same substance, the IIb-Fold (fold change in affinity over wild-type) (fold over wild-type) in the test with FcγRIIb [2] worked out at 31.1.

With “Variant 19699 (chain A: G236D_G237F / chain B: G236D_G237F), one-armed trastuzumab antibody, Scaffold 2”, the IIb/IIaR Selectivity (IIb-Fold/IIaR-Fold) in the test with FcγRIIb [1] is 7. Besides, in the test with FcγRIIaR, the IIaR-Fold (fold change in affinity over wild-type) (fold over wild-type) was 0.3. Also, the IIb-Fold (fold change in affinity over wild-type) (fold over wild-type) with FcγRIIb [2] came out at 2.1.

With “Variant 19517 (chain A: G236D / chain B: S239D_H268D), one-armed trastuzumab antibody, Scaffold 2”, in the test with FcγRIIb [1], the IIb/IIaR Selectivity (IIb-Fold/IIaR-Fold) was 2.6. For the same substance, in the test with FcγRIIaR, the IIaR-Fold (fold change in affinity over wild-type) (fold over wild-type) stood at 11.6. Moreover, the IIb-Fold (fold change in affinity over wild-type) (fold over wild-type) in the test with FcγRIIb [2] was determined as 30.5.

Turning to “Variant 19528 (chain A: G236N / chain B: G236S_S239D_H268D), one-armed trastuzumab antibody, Scaffold 2”, the IIb/IIaR Selectivity (IIb-Fold/IIaR-Fold) in the test with FcγRIIb [1] is 2.8. Further, in the test with FcγRIIaR, the IIaR-Fold (fold change in affinity over wild-type) (fold over wild-type) was 6.7. Further, the IIb-Fold (fold change in affinity over wild-type) (fold over wild-type) with FcγRIIb [2] came to 18.6.

As to “Variant 19514 (chain A: none / chain B: G236H_S239D_H268D), one-armed trastuzumab antibody, Scaffold 2”, in the test with FcγRIIb [1], the IIb/IIaR Selectivity (IIb-Fold/IIaR-Fold) was 1.7. Also, the IIaR-Fold (fold change in affinity over wild-type) (fold over wild-type) with FcγRIIaR was 2.5. Moreover, the IIb-Fold (fold change in affinity over wild-type) (fold over wild-type) with FcγRIIb [2] was found to be 4.2.

Take “Variant 19525 (chain A: G236D / chain B: G236Q_S239D_H268D), one-armed trastuzumab antibody, Scaffold 2”: the IIb/IIaR Selectivity (IIb-Fold/IIaR-Fold) with FcγRIIb [1] came to 3.7. The IIaR-Fold (fold change in affinity over wild-type) (fold over wild-type) in the test with FcγRIIaR was found to be 2.1. For the same substance, the IIb-Fold (fold change in affinity over wild-type) (fold over wild-type) with FcγRIIb [2] came to 7.7.

Turning to “Variant 19526 (chain A: G236D / chain B: G236K_S239D_H268D), one-armed trastuzumab antibody, Scaffold 2”, the IIb/IIaR Selectivity (IIb-Fold/IIaR-Fold) with FcγRIIb [1] was determined as 3.5. Also, in the test with FcγRIIaR, the IIaR-Fold (fold change in affinity over wild-type) (fold over wild-type) was 0.4. For the same substance, the IIb-Fold (fold change in affinity over wild-type) (fold over wild-type) in the test with FcγRIIb [2] came out at 1.4.

“Variant v26743, A_P271K_strat2, one-armed trastuzumab antibody” yielded an IIb Selectivity Improvement wrt Control in test [3] of 1 fold. The IIb-Fold wrt Control in test [4] is 0.6 fold. For the same substance, the IIb Selectivity in test [5] is 12.9 fold. The same substance displayed an IIaR-fold in test [6] of 4.3 fold. Besides, the IIb-Fold in test [7] came to 55.7 fold.

Turning to “Variant 19527 (chain A: G236N / chain B: G236K_S239D_H268D), one-armed trastuzumab antibody, Scaffold 2”, the IIb/IIaR Selectivity (IIb-Fold/IIaR-Fold) in the test with FcγRIIb [1] is 6. Moreover, the IIaR-Fold (fold change in affinity over wild-type) (fold over wild-type) with FcγRIIaR worked out at 0.2. Moreover, the IIb-Fold (fold change in affinity over wild-type) (fold over wild-type) with FcγRIIb [2] was found to be 1.2.

The substance “Variant v26742, A_P271R_strat2, one-armed trastuzumab antibody” gave an IIb Selectivity Improvement wrt Control in test [3] of 0.8 fold. The substance also displayed an IIb-Fold wrt Control in test [4] of 0.5 fold. The substance also gave an IIb Selectivity in test [5] of 10.7 fold. In test [6], this substance showed an IIaR-fold of 4.4 fold. Moreover, the IIb-Fold in test [7] is 47.1 fold.

In test [3], “Variant v26749, A_E272I_strat2, one-armed trastuzumab antibody” came in with an IIb Selectivity Improvement wrt Control of 1 fold. In test [4], this substance came in with an IIb-Fold wrt Control of 0.9 fold. In test [5], this substance came in with an IIb Selectivity of 13.7 fold. In test [6], the IIaR-fold amounted to 6.1 fold. For the same substance, in test [7], the IIb-Fold amounted to 83.8 fold.

In test [3], “Variant v26734, A_P271W_strat2, one-armed trastuzumab antibody” registered an IIb Selectivity Improvement wrt Control of 0.9 fold. The substance also had an IIb-Fold wrt Control in test [4] of 0.6 fold. The IIb Selectivity in test [5] was 12.3 fold. The same substance showed an IIaR-fold in test [6] of 4.3 fold. The substance also had an IIb-Fold in test [7] of 52.5 fold.

Regarding “Variant v26720, A_D270S_strat2, one-armed trastuzumab antibody”, in test [3], the IIb Selectivity Improvement wrt Control was determined as 0.9 fold. The IIb-Fold wrt Control in test [4] was 0.5 fold. For the same substance, the IIb Selectivity in test [5] is 12.7 fold. Also, in test [6], the IIaR-fold stood at 3.9 fold. In test [7], this substance came in with an IIb-Fold of 49.5 fold.

In test [3], “Variant v26731, A_P271L_strat2, one-armed trastuzumab antibody” yielded an IIb Selectivity Improvement wrt Control of 1.1 fold. In test [4], this substance came in with an IIb-Fold wrt Control of 0.7 fold. For the same substance, the IIb Selectivity in test [5] is 14.7 fold. Moreover, the IIaR-fold in test [6] was 4.5 fold. For the same substance, the IIb-Fold in test [7] came out at 66.6 fold.

With “Variant v26715, A_D270I_strat2, one-armed trastuzumab antibody”, in test [3], the IIb Selectivity Improvement wrt Control was found to be 1.1 fold. The substance further registered an IIb-Fold wrt Control in test [4] of 0.6 fold. The substance also showed an IIb Selectivity in test [5] of 15.2 fold. The substance also yielded an IIaR-fold in test [6] of 3.8 fold. Also, the IIb-Fold in test [7] came out at 57.9 fold.

As for “Variant v26754, A_E272S_strat2, one-armed trastuzumab antibody”, the IIb Selectivity Improvement wrt Control in test [3] amounted to 1.1 fold. Further, in test [4], the IIb-Fold wrt Control was 0.7 fold. In test [5], this substance registered an IIb Selectivity of 14.7 fold. Moreover, in test [6], the IIaR-fold stood at 4.1 fold. Moreover, the IIb-Fold in test [7] is 61 fold.

For the substance “Variant v26738, A_P271Q_strat2, one-armed trastuzumab antibody”, in test [3], the IIb Selectivity Improvement wrt Control is 1.1 fold. The IIb-Fold wrt Control in test [4] came to 0.6 fold. The IIb Selectivity in test [5] amounted to 14.1 fold. In addition, the IIaR-fold in test [6] stood at 4 fold. The substance further yielded an IIb-Fold in test [7] of 56.1 fold.
